Positions of bridges follow the written chain, without caps; N, C: chain ends. Non-standard residues stand in square brackets, D forms with d. Residues, ends and D or L forms follow the SMILES beside them. *: point of attachment. DOTA = O=C(O)CN1CCN(CC(=O)O)CCN(CC(=O)*)CCN(CC(=O)O)CC1; 1Nal = N[C@@H](Cc1cccc2ccccc12)C(=O)O; Thr(ol) = C[C@@H](O)[C@H](N)CO
Test: Radiolysis during labelling reaction, with and without EtOH as radiolytic scavenger
Assay type: physicochemical
Settings: final product vial, radio-HPLC, single test
Description: The considerably high percentage of radiolysis in the final product vial (FPV), caused by the presence of free radicals in solution (e.g., superoxide or hydroxyl radicals), impaired the establishment of the most favourable labelling conditions. Although not explicitly measured, for higher activity concentrations, the radiolysis percentage was anticipated to increase. Several compounds are known to act as radiolytic stabilizers and protect against radiolysis. Antioxidant compounds, such as ascorbic acid (AA) and gentisic acid (GA), are commonly known to protect against radiolysis and are mainly described in the literature for radiolabelling biomolecules with β^--emitting radionuclides (e.g., yttrium-90 and luthetium-177). Notwithstanding, these compounds might have a negative impact on copper-based radiopharmaceuticals, given the redox properties of copper. […] To evaluate the applicability of EtOH as a radiolytic scavenger for ^61Cu-based radiopharmaceuticals, a single test with and without EtOH was performed before establishing optimal labelling conditions. […] Compared with the labelling of [^61Cu]Cu-DOTA-NOC without EtOH (Figure 4A), it is evident that there is a significant decrease in the rate of radiolysis using the ethanol-based method (Figure 4B–D). […] Based on these findings, the use of EtOH was implemented in all further labelling formulations to act as a radiolytic stabilizing agent during the labelling reaction.
Figure 4 Representative chromatograms of [^61Cu]Cu-DOTA-NOC, [^61Cu]Cu-DOTA-TOC and [^61Cu]Cu-DOTA-TATE without (A) and with (B–D) using EtOH (maximum 5 vol% EtOH) during the labelling reaction. Two different HPLC methods were used, as described in Table 4. For a more practical comparative analysis between chromatograms, raw data was normalised as percentage of total radioactivity. Percentage of radiolysis is the ratio of radiolysis counts to total counts. TEXT PRINTED IN THE PICTURE: (A) [^61Cu]Cu-DOTA-NOC: Radiolysis: > 15% | (B) [^61Cu]Cu-DOTA-NOC: Radiolysis: < 5% | (C) [^61Cu]Cu-DOTA-TOC: Radiolysis: < 1% | (D) [^61Cu]Cu-DOTA-TATE: Radiolysis: < 1%
RCP was measured by HPLC (Agilent 1200 series HPLC system, Agilent Technologies, Santa Clara, CA, USA) equipped with a GABIStar NaI(Tl) radiometric detector (Raytest Isotopenmessgeraete GmbH, Straubenhardt, Germany) (20 μL sample volume). Two different methods (Table 4) were used, one for [^61Cu]Cu-DOTA-NOC (Method A) and a second to evaluate both [^61Cu]Cu-DOTA-TATE and [^61Cu]Cu-DOTA-TOC (Method B). An ACE 3 C18 150 × 3 mm HPLC column (ACE, Reading, UK) was used in both methods, and the flow was fixed at 0.6 mL/min.

[1] = labelling with EtOH up to 300 μL (maximum 5 vol% EtOH)

Compound | Radiolysis (ratio of radiolysis counts to total counts) [1] | Radiolysis (ratio of radiolysis counts to total counts) (labelling without EtOH)
C[C@@H](O)[C@@H]1NC(=O)[C@H](CCCCN)NC(=O)[C@@H](Cc2c[nH]c3ccccc23)NC(=O)[C@H](Cc2cccc3ccccc23)NC(=O)[C@@H](NC(=O)[C@@H](Cc2ccccc2)NC(=O)CN2CCN(CC(=O)O)CCN(CC(=O)O)CCN(CC(=O)O)CC2)CSSC[C@@H](C(=O)N[C@H](CO)[C@@H](C)O)NC1=O [[^61Cu]Cu-DOTA-NOC, metal not drawn] ({DOTA}-[dF]C[1Nal][dW]KTC[Thr(ol)]; disulfide 2-7 (inferred)) | less than 5% | more than 15%
C[C@@H](O)[C@@H]1NC(=O)[C@H](CCCCN)NC(=O)[C@@H](Cc2c[nH]c3ccccc23)NC(=O)[C@H](Cc2ccc(O)cc2)NC(=O)[C@@H](NC(=O)[C@@H](Cc2ccccc2)NC(=O)CN2CCN(CC(=O)O)CCN(CC(=O)O)CCN(CC(=O)O)CC2)CSSC[C@@H](C(=O)N[C@H](CO)[C@@H](C)O)NC1=O [[^61Cu]Cu-DOTA-TOC, metal not drawn] | less than 1% | 
C[C@@H](O)[C@H](NC(=O)[C@@H]1CSSC[C@H](NC(=O)[C@@H](Cc2ccccc2)NC(=O)CN2CCN(CC(=O)O)CCN(CC(=O)O)CCN(CC(=O)O)CC2)C(=O)N[C@@H](Cc2ccc(O)cc2)C(=O)N[C@H](Cc2c[nH]c3ccccc23)C(=O)N[C@@H](CCCCN)C(=O)N[C@@H]([C@@H](C)O)C(=O)N1)C(=O)O [[^61Cu]Cu-DOTA-TATE, metal not drawn] | less than 1% | 

Source: article PMC9231368, “Production of GMP-Compliant Clinical Amounts of Copper-61 Radiopharmaceuticals from Liquid Targets” (Pharmaceuticals, 2022)
